Measurements from US20200407445A1 (ITEOS THERAPEUTICS, published 2020).
Values belong to the binder of their own block, whether it stands above or below them.

What was measured:
[1] = molecular target: T1, Cyno TIGIT-Fc (cynomolgus, UniProt A0A7N9I9V4 89-209); assay: ForteBio BLI, Fab KD, monovalent
T1 construct: not shown: Fc part

[2] = molecular target: T2, Human TIGIT-His (human, UniProt Q495A1 22-141, biotinylated in the ForteBio Fab assay); assay: ForteBio BLI, Fab KD, monovalent
T2 construct: bought (Creative Biomart); also called Biotinylated Human TIGIT HIS; TIGIT-His monomer; not shown: His tag
T2 sequence (looked up): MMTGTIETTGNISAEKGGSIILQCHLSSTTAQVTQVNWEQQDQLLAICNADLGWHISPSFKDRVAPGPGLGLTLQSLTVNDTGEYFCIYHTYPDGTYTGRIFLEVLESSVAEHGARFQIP

[3] = molecular target: T3, Mouse TIGIT-Fc (mouse, UniProt P86176 29-148, limits assumed); assay: ForteBio BLI, Fab KD, monovalent
T3 construct: not shown: Fc part
T3 sequence (looked up): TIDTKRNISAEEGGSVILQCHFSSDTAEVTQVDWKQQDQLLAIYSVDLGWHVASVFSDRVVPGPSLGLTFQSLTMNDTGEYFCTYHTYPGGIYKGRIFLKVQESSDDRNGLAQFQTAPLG

[4] = molecular target: T4, human TIGIT expressed on cells (human, UniProt Q495A1 22-244); assay: flow cytometry, primary CD8+ T cells of healthy human PBMC, MFI
T4 construct: whole, on cells; on Jurkat E6.1 cells transduced with human TIGIT, on Promega TIGIT Effector cells or on human primary T cells; the assay field says which; also called hTIGIT; Jurkat-hTIGIT
T4 sequence (looked up): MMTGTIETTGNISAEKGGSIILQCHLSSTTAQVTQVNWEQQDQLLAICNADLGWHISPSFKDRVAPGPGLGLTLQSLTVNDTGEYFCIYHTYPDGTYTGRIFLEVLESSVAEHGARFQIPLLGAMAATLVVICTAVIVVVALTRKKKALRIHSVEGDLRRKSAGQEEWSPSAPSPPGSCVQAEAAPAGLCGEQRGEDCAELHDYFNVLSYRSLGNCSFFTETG
Procedure: Isolated human PBMCs from healthy volunteers were analysed for binding by antagonist anti-TIGIT antibodies. Cells were distributed at 1×10⁵ cells per well. Cells were incubated with anti-CD16 (Clone 3G8, BioLegend 302002), CD32 (Clone FLI8.26, BD Bioscience 557333) and CD64 (BD Bioscience 555525) at room temperature for 10 min, and the indicated anti-human TIGIT antibody clones were directly added at a final concentration of 8; 4; 2; 1; 0.5; 0.25; 0.125; 0.062; 0.031; 0.016; 8×10⁻³ and 4×10⁻³ nM in FACS buffer and incubated for 20 min at 4° C. […] Then, cells were washed and incubated with the following antibodies and LVD mix: anti-CD4-PercP-Cy5.5 (clone A161A1, BioLegend 357414); anti-CD8-BV510 (clone SK1, BD Bioscience 563919) and LVD efluor 660 (eBioscience 65-0864-18).
The EC50 values for binding to CD8+ human primary T cells were calculated using the MFI signal on living TIGIT+CD8+ T cells.

[5] = molecular target: T4, human TIGIT expressed on cells; assay: cell-based or functional assay
[6] = molecular target: T4, human TIGIT expressed on cells; assay: cell-based or functional assay; remark: listed apart in the source
[7] = molecular target: T4, human TIGIT expressed on cells; assay: flow cytometry, primary CD8+ T cells of cancer patients' PBMC, MFI
Procedure: Cells were distributed at 1×10^5 cells per well. […] Then, cells were washed and incubated with the following antibodies and life viability dye (LVD) mix: anti-CD4-PercP-Cy5.5 (clone A161A1, BioLegend 357414); anti-CD8-BV510 (clone SK1, BD Bioscience 563919) and LVD efluor 520 (eBioscience 65-0867-14). Cells were washed and fixed and surface staining was quantified using BD LSR Fortessa. Flow cytometry data was analysed using FlowJo V10.1. TIGIT MFI on gated LVD-TIGIT+CD8+ cells was used to calculate EC50 values.

[8] = molecular target: T4, human TIGIT expressed on cells; assay: flow cytometry on Jurkat-hTIGIT
Procedure: Antibodies were incubated with the cells for 20 min at 4° C. in FACS buffer. […] Fluorescence intensity was analysed using LSR BD Fortessa and cell binding was recorded as the median fluorescence intensity of PE in cells expressing TIGIT at their surface.
The half-maximal concentration of binding (EC50) to Jurkat-hTIGIT was calculated using a four-variable curve-fit equation in Prism.

[9] = molecular target: T5, recombinant human TIGIT protein (construct not stated) (human, UniProt Q495A1 22-141, limits assumed); assay: Biacore T200, IgG captured by anti-human Fc, antigen in solution, 1:1 kinetic model
T5 construct: also called hTIGIT (Creative Biomart); recombinant TIGIT protein
T5 sequence (looked up): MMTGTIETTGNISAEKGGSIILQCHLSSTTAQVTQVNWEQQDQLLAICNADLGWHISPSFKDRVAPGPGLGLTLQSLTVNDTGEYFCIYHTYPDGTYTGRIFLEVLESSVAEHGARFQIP
Procedure: Biosensor analysis was conducted at 25° C. in a HBS-EP buffer system (10 mM HEPES pH 7.3, 150 mM NaCl, 3 mM EDTA, 0.05% Tween20) using Biacore T200 technology, CMS sensor chip (run at Novalix, France). The sample hotel was maintained at 8° C. Goat anti-human IgG capture antibody (Fcγ fragment specific, Jackson ImmunoResearch Laboratories) was immobilized (10000 RU) to both flow cells of the sensor chip using standard amine coupling chemistry. This surface type provided a format for reproducibly capturing fresh analysis antibody after each regeneration step. Flow cell 2 was used to analyse captured antibody while flow cell 1 was used as a reference flow cell. […] Two blank (buffer) injections also were run and used to assess and subtract system artefacts. The association (300 s) and dissociation (600 s) phases for all antigen concentrations were performed at a flow rate of 30 uL/min. The surface was regenerated with three sequential injections (15 s, 15 s and 60 s) of 10 mM glycine-HCl, pH 1.5. The obtained sensorgrams were fitted globally to a 1:1 model (assuming the same kinetic values for all applied concentrations).

[10] = molecular target: T4, human TIGIT expressed on cells; assay: flow cytometry, competition with CD155-His (15 ug/ml) on Jurkat-hTIGIT

T1 sequence (A0A7N9I9V4 entry or part of it): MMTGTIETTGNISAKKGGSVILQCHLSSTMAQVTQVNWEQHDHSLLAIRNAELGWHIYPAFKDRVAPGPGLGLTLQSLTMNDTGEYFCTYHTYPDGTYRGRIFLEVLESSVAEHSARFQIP

B2: Fab of anti-TIGIT clone 29520 (Fab, V domains shown)
VH: QVQLVESGGGLVQPGRSLRLSCAASGFTFRDYAMHWVRQAPGKGLEWVSGITWNSGLIGYADSVKGRFTISRDNAKNSLYLQMNSLRAEDTALYYCAKPVPRLRGLDVWGQGTMVTVSS
VL: DIQLTQSPSSVSASVGDRVTITCRASQGISSWLAWYQQKPGKAPKLLIYGASSLQSGVPSRFSGSGSGTDFTLTISSLQPEDFATYYCQQAFYLPWTFGGGTKVEIK
Kd [1]: 2.68 nM
Kd [2]: 1.31 nM
Kd [3]: 1.95 nM

B4: 22G2 (comparative anti-TIGIT antibody, human IgG1) (antibody, V domains shown)
VH: QVHLQESGPGLVKPSETLSLTCTVSGGSVSSGIYYWSWIRQPPGKGLEWIGYIYYSGSTNYNPSLKSRVTISVDTSKNQFSLKLSSVTAADTAVYYCARDYYVSGNYYNVDYYFFGVDVWGQGTTVTVSS
VL: EIVLTQSPATLSLSPGERATLSCRASQSVSSYLAWYQQKPGQAPRLLIYDASNRATGIPARFSGSGSGTDFTLTISSLEPEDFAVYYCQQRSNWPPLFTFGPGTKVDIK
notes: from WO2016/106302; made in HEK cells as human IgG1
EC50 [4]: 1.17 nM
Fold change of EC50 over EC50 of best clone (31282_wu) [4]: 6.1 fold
EC50 (nM), luciferase, Jurkat-hTIGIT [5]: 5.2 nM
Fold change of EC50 over EC50 of best clone (31282_up) [5]: 1.6 fold
Induction over Isotype control (fold change), luciferase, Jurkat-hTIGIT + CD155 aAPC/CHO-K1 [5]: 5.3 fold
EC50 (nM), IFNg, human primary CD8+ T cells [6]: 0.41 nM
Fold change of EC50 over EC50 of best clone (31282_wu) [6]: 3.1 fold
Induction over isotype control (fold change), IFNg, human primary CD8+ T cells + CD155 aAPC/CHO-K1 [6]: 1.5 fold
EC50 [7]: 0.37 nM
Fold change of EC50 over EC50 of best clone (31282) [7]: 3.1 fold
EC50 [8]: 0.32 nM
Fold change of EC50 over EC50 of best clone (31282_wu) [8]: 3 fold
Kd [9]: 0.071 nM
koff [9]: 0.000178 s⁻¹
Fold change of IC50 over IC50 of best clone (31282_up) [10]: 2.2 fold
IC50 [10]: 0.09 nM

Second part, the binder after the results:

Kd [1]: 17.6 nM
Kd [2]: 1.33 nM
Kd [3]: 20.2 nM
B1: Fab of anti-TIGIT clone 29527 (Fab, V domains shown)
VH: QVQLVESGGGVVQPGRSLRLSCAASGFTFSSSYMHWVRQAPGKGLEWVAVIGADGSNKYYADSVEGRFTISRDNSKNTLYLQMNSLRAEDTALYYCAKPVPRRRGLDVWGQGTMVTVSS
VL: DIQLTQSPSSVSASVGDRVTITCRASQGISSWLAWYQQKPGKAPKLLIYGASSLQSGVPSRFSGSGSGTDFTLTISSLQPEDFATYYCQQAFYLPWTFGGGTKVEIK

binding result [1]: no binding
Kd [2]: 40.6 nM
Kd [3]: 26.7 nM
B3: Fab of anti-TIGIT clone 26493 (Fab, V domains shown)
VH: EVQLVESGGGLVQPGRSLRLSCAASGFTFGDYAMHWVRQAPGKGLEWVSGITWNSGSIGYADSVKGRFTISRDNAKNSLYLQMNSLRAEDTALYYCAKPVPKSRGLDVWGQGTMVTVSS
VL: DIQLTQSPSSVSASVGDRVTITCRASQGISSWLAWYQQKPGKAPKLLIYGASSLQSGVPSRFSGSGSGTDFTLTISSLQPEDFATYYCQQAFYLPWTFGGGTKVEIK

binding result [1]: no binding
Kd [2]: 13.1 nM
binding result [3]: no binding
B5: Fab of anti-TIGIT clone 26432 (Fab, V domains shown)
VH: QVQLVQSGAEVKKPGSSVKVSCKASGGTFSSYAISWVRQAPGQGLEWMGGIIPIFGTANYAQKFQGRVTITADESTSTAYMELSSLRSEDTAVYYCAREAQSYRVPFDIWGQGTMVTVSS
VL: EIVMTQSPATLSVSPGERATLSCRASQSVSSNLAWYQQKPGQAPRLLIYGASTRATGIPARFSGSGSGTEFTLTISSLQSEDFAVYYCQQYAIWPPFTFGGGTKVEIK
